In data set [1] the target is T1, EsxGH heterodimer (ESX-3 secretion system) (UniProt O53692;P9WNK3 O53692:2-97,P9WNK3:1-96).
T1 sequence 1: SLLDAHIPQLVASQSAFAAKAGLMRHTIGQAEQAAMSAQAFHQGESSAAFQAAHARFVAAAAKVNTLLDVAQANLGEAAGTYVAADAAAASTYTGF
T1 sequence 2: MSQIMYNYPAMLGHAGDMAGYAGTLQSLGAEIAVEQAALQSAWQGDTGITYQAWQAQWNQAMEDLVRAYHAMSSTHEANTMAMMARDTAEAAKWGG
In words: ELONA. The following applies: label: biotin. The procedure: (§1) For each binding assay, 96 well micro-titre plates (Corning, Adcock Ingram) were coated with the CFP-10.ESAT-6 heterodimer in a 10 mM NaHCO₃ buffer pH 8.5 (Sigma) and left overnight at 4° C. The plates were then washed with 1× phosphate buffered saline containing 0.005% Tween 20 (PBS-T) pH7 (Sigma) and blocked with a 5% fat free milk solution for 1 hour at 4° C. The plates were then washed 3 times with a 1×PBS after which 150 nM biotinylated aptamer was added and incubated for 2 hours at room temperature. This was followed by three wash steps with 1×PBS-T and the addition to HRP-conjugated streptavidin (diluted 1:10000 in 1×PBS-T) and incubated for two hours at 37° C. The plates were then washed four more times with 1×PBS-T, after which a final 3,3′,5,5′-tetramethylbenzidine (TMB) detection substrate (Separations) was added. […] The reaction was stopped with a 2 M sulphuric acid solution (Merck), resulting in a colour change from blue to yellow. The plates were read on the MultiSkan Go plate reader (ThermoScientific, AEC-Amersham) at a wavelength of 450 nm. […] Each aptamer was done in triplicate and the repeats were averaged and the standard deviation calculated. Each aptamer was tested twice in triplicate to ensure accuracy. The aptamers were then compared to the aptamer alone control using a Student t-test statistical analysis to obtain the p value for significance.
(§2) Selected ssDNA aptamers were tested for binding specificity to the ESAT-6 and CFP-10 monomers. The aptamers were tested for binding using ELONA to CFP-10, ESAT-6, CFP-10.ESAT-6 heterodimer, a CFP-10.ESAT-6 related protein in the ESX3 secretion system (EsxGH complex) and a HIV surface glycoprotein (gp120). EsxGH is an ESAT-6 family related protein that is encoded and secreted by the ESX-3 secretion system and gp120 is a HIV glycoprotein which is unrelated to the Mtb antigens.

In another data set the target is ESAT-6 (monomer) (Mycobacterium tuberculosis, UniProt P9WNK7 P9WNK7:2-95). Put plainly: ELONA. The following applies: label: biotin. Here is the method: as §1, §2
Data set [2] concerns the target T2, CFP-10 (monomer) (Mycobacterium tuberculosis, UniProt P9WNK5 P9WNK5:2-100). Put plainly: ELONA, 150 nM aptamer. To be noted: label: biotin.
Data set [3] concerns the target T3, CFP-10.ESAT-6 heterodimer (Mycobacterium tuberculosis, UniProt P9WNK5;P9WNK7 P9WNK5:2-100,P9WNK7:2-95). Put plainly: ELONA, 150 nM aptamer; binding abrogated by anti-ESAT-6 mAb. The following applies: label: biotin. Here is the method: as §1, with “The assay was modified from an ELISA protocols for determination of aptamer-protein interactions and has been termed an ELONA. Unique aptamer clones identified by sequencing were tested for their individual binding characteristic to the CFP-10.ESAT-6 heterodimer using an ELONA. Each ssDNA aptamer was prepared using the exonuclease method as described above with minor modifications, in that all aptamers were prepared with the biotinylated forward primer. For” for “For”
The antibody competition binding was done using the ELONA method described above with minor modifications.

Data set [4] deals with T2, CFP-10 (monomer). Put plainly: SPR; CFP-10 immobilised on CM5 chip, BIAcore 3000. To be noted: label: biotin; two predicted stem-loops. Here is the method:
(§3) FIG. 7 illustrates kinetic studies of 5 of the best aptamers. CFP-10 attached to a CM5 chip was used to capture the respective anti-CFP-10.ESAT-6 aptamers. The respective aptamers were injected at different concentrations at a flow rate of 10 μl/min for 5 minutes and allowed to dissociate for 10 minutes;
(§4) To determine the binding affinity of aptamers to the M.tb antigens, all four flow cells on a CM5 chip (BIAcore, Separations Scientific) were activated with EDC:NHS (BIAcore, Separations Scientific). CFP-10 was bound to three of the four flow cells by injecting 50 μl of 50 μg/ml CFP-10 over them. Ethanolamine (BIAcore, Separations Scientific) was then injected over all four flow cells to quench any remaining active sites. Partially bound or unbound protein was removed by a wash with 10 μl of a 10 mM NaOH solution. Different concentrations of the respective aptamers (0 nM, 31 nM, 62 nM, 125 nM, 250 nM, and 500 nM) were randomly injected over all four flow cells at a flow rate of 10 μl/min for 5 minutes. The respective aptamers, were then allowed to dissociate for 10 minutes. […] The evaluation was done using BiaEvaluation Software (BIAcore) to determine the KD values for each flow cell. The average dissociation constant was then determined.

Data set [5] concerns the target T2, CFP-10 (monomer). In words: SPR; CFP-10 immobilised on CM5 chip; also bound in ELONA. To be noted: label: biotin; three predicted stem-loops. Here is the method: as §3, §4
The target in data set [6] is T3, CFP-10.ESAT-6 heterodimer. Put plainly: ELONA; slightly higher affinity than 90-mer (P<0.05). To be noted: two predicted stem-loops.
The target in data set [7] is T2, CFP-10 (monomer). Put plainly: ELONA; affinity comparable to 90-mer. To be noted: two predicted stem-loops.
The target in data set [8] is T2, CFP-10 (monomer). In words: SPR; CFP-10 immobilised on CM5 chip. The following applies: label: biotin. The procedure: as §3, §4
In general terms: In SPR one partner is held on a chip, and binding of the other changes the refractive index at the surface.

The target of data set [9] is T2, CFP-10 (monomer). Put plainly: ELONA, 150 nM aptamer; SPR also run, Kd not given. The following applies: label: biotin.

B1: CSIR 2.21 (ssDNA)
DNA: GCCTGTTGTGAGCCTCCTAACACACACGTAGCGCCTTGTTGAAGTATACTCAAAGCATTCTCCACGCGGGCATGCTTATTCTTGTCTCCC
As to B1, the binding result in [1] is listed as “no binding”; with ESAT-6 (monomer), “no binding”; with CFP-10 (monomer) [2], “binds”; in data set [3], “binds”.

B2: CSIR 2.9 (ssDNA)
DNA: GCCTGTTGTGAGCCTCCTAACTCCGGTCTTCAACATGTCCAATCGAACTTCGGCGGAAATCCTTTACCTGCATGCTTATTCTTGTCTCCC
Take B2: the binding result in data set [1] is “no binding”; in the data set with ESAT-6 (monomer), “no binding”; with CFP-10 (monomer) [2], “binds”; in data set [3] it was “binds”.

B3: CSIR 2.19 (ssDNA)
DNA: GCCTGTTGTGAGCCTCCTAACTTCCAATAACGATACTTAAACCTGGTCTTTGCCAGTCAATGATAGCATCATGCTTATTCTTGTCTCCC
As a reminder, the Kd is the constant that tells how readily two partners part at equilibrium. With B3, the dissociation constant Kd with CFP-10 (monomer) [4] is 1.6 nM. Also, the binding result (in [1] (two predicted stem-loops); in the data set with ESAT-6 (monomer) (two predicted stem-loops)) was “no binding” each time.

B4: CSIR 2.11 (ssDNA)
DNA: GCCTGTTGTGAGCCTCCTAACCCCATCTTATACGTATATGGACTCATCTCGACCCCCGATAGGCTTGGTACATGCTTATTCTTGTCTCCC
Regarding B4, the Kd in the data set with CFP-10 (monomer) [5] was 8 nM. For the same molecule, the binding result (in [1] (three predicted stem-loops); in the data set with ESAT-6 (monomer) (three predicted stem-loops)) was “no binding” each time.

B5: CSIR 2.19 truncated (77-mer) (ssDNA)
DNA: GCCTGTTGTGAGCCTCCTAACTTCCAATAACGATACTTAAACCTGGTCTTTGCCAGTCAATGATAGCATCATGCTTA
modifications: [none (12 nt removed from the 3' end, parent positions 1-77)]
In the case of B5, the binding result (in [6]; in the data set with CFP-10 (monomer) [7]) was “binds” in each case.

B6: CSIR 2.2 (ssDNA)
DNA: GCCTGTTGTGAGCCTCCTAACCCGTCTAACGAGATTGGGTCTTCATATGGCTCGAAGCGCGCGGTCAGTTCATGCTTATTCTTGTCTCCC
As for B6, the binding result (in data set [1]; with ESAT-6 (monomer)) was “no binding” throughout. In the data set with CFP-10 (monomer) [8], this molecule returned a Kd of 21.5 nM.

B7: CSIR 2.15 (ssDNA)
DNA: GCCTGTTGTGAGCCTCCTAACTAATGTGGATGCTGCATCGTTAGTATTTCTAGCATGCAATATAGGCATGCATGCTTATTCTTGTCTCCC
In the case of B7, the binding result is listed as “no binding” in data set [1], “no binding” with ESAT-6 (monomer), “binds” in data set [3] and “binds” in the data set with CFP-10 (monomer) [9].
